The values that follow come from patent US20100048604A1, “Ligands for Aldoketoreductases” (priority 2004, published 2010).

For series [1], the system named is AKR1C1-AKR1C4. Kind of series: Substrate tolerance and selectivity across the four human AKR1C isozymes. To be noted: AKR1C1-AKR1C4, purified enzymes, NADPH. In kind it is biochemical. From the text:
(§1) AKR1C2 and AKR1C3 Selective Probes: Probes (5a-5i) were examined as substrates for the four purified human HSD isozymes (AKR1C1-AKR1C4) under standard assay conditions [catalytic quantities of enzyme, an excess of cofactor (NADPH)]. The initial reaction rates were used to derive standard kinetic parameters (kcat and Km, Materials and Methods).
(§2) Substrate tolerance of AKR1Cs: Isozyme Activity with 5a-5i: Activity of the second generation of fluorogenic substrates with the AKR1C isozymes was determined as follows. To a STARNA semi-micro fluorimeter cell (with 4 polished windows) was added 100 μL of 1 M potassium phosphate buffer (pH 6), 840 μL doubly deionized water, and 20 μL of 12.5 mM NADPH. After mixing the aqueous components thoroughly, 20 μL of acetonitrile was added as a cosolvent and mixed well. 20 μL of 2.5 mM second generation fluorogenic ketone in acetonitrile (5a-5i) was then added and mixed. 4 μL of undiluted AKR1C (provided generously by the Penning lab at concentrations of 2.5 mg/mL) were then added to the cuvette for a total of 10 μg purified enzyme in the 1 mL assay volume. Fluorescence arising from the respective alcohol reduction product was then monitored over the course of 5-10 minutes.
Binding constant and catalytic rates (Km and kcat) of the second generation of fluorogenic substrates was determined as follows. To a STARNA semi-micro fluorometer cell (with 4 polished windows) was added 100 μL of 1 M potassium phosphate buffer (pH 6), 840 μL doubly deionized water, and 20 AL of 12.5 mM NADPH. After mixing the aqueous components thoroughly, 20 μL of acetonitrile was added as a cosolvent and mixed well. […] Fluorescence arising from the respective alcohol reduction product was then monitored over the course of 3 minutes (Excitation and emission band pass slits both at 4 nm, lamp 700 V, λexc 410 nm, λem 510). The rate of product formation, expressed in units of nanomoles per minute, were calculated according to previously published procedures (Wierzchowski, J.; Dafeldecker, W. P.; Holmquist, B.; Vallee, B. L. Anal. Biochem. 1989, 178, 57-62): […]

Series [2] has as its target T1, horse liver alcohol dehydrogenase (HLAD) (Equus caballus, UniProt P00327).
T1 construct: purchased Sigma (St. Louis, Mo.) Lot Number 51K7520 (catalogue number not given)
The series can be described thus: Enzymatic screening of probes 1-7 against a panel of oxidoreductases. The series is classed as biochemical. To be noted: 12 hour incubation, 30-50 μM substrate, pH 7, 250 μM NAD(P)H. The protocol: (§3) FIG. 4. Screening of probes 1-7 against a panel of oxidoreductases Percentage fluorescence increase after 12 hour incubation of 30-50 μM substrate, 100 mM phosphate buffer (pH 7), 250 μM NAD(P)H, and 100 nM enzyme. Substrates 1, 2, 3, and 4 monitored at λexc=340 nm, λem=440 nm. Substrates 5, 6, and 7 monitored at λexc=440 nm, λem=510 nm. 3HSD, 3α-hydroxysteroid dehydrogenase (PT, Pseudomonas testosteroni), HLAD, horse liver alcohol dehydrogenase, TBAD, Thermoanaerobium brockii alcohol dehydrogenase, BS 12HSD, Bacillus sp. 12α-hydroxysteroid dehydrogenase, ABAD, amyloid-β binding alcohol dehydrogenase (human), GDH, glycerol dehydrogenase, YADH, yeast alcohol dehydrogenase, LDH, lactate dehydrogenase.
(§4) Probes 1-7 (see FIG. 3) were subsequently tested against a collection of dehydrogenases in the presence of NAD(P)H; the extent of reduction was assessed by the measurement of fluorescence intensity at the emission maximum of each probe (FIG. 4). This assay included enzymes from two major oxidoreductase superfamilies, the short chain alcohol dehydrogenases (SDR) and the aldo-keto reductases (AKR), ranging from bacterial to mammalian and human enzymes.
(§5) Horse Liver alcohol dehydrogenase (Lot Number 51K7520), Thermoanaerobium brockii NADP^+ dependent alcohol dehydrogenase (Lot Number 033K4093), Pseudomonas testosteroni 3α-hydroxysteroid dehydrogenase (Lot Number 053K8624), and Bacillus sphaericus 12α-hydroxysteroid dehydrogenase (Lot Number 70K16621) were purchased from Sigma (St. Louis, Mo.). Yeast alcohol dehydrogenase (Lot Number 93122920), glycerol dehydrogenase (Lot Number 92110122), (D)-lactate dehydrogenase (Lot Number 92419236), (L)-lactate dehydrogenase (Lot Number 92801821), NAD^+, NADP^+, NADH, and NADPH were purchased from Roche. Enzyme activity was confirmed by compliance to supplier's quality control assays prior to usage. Rat and human 3α-hydroxysteroid dehydrogenases were provided by Professor Trevor Penning (University of Pennsylvania School of Medicine) and human amyloid-β peptide binding alcohol dehydrogenase was supplied by Professor Shi Du Yan (Columbia University School for Physicians and Surgeons).
(§6) Enzymatic assays were performed in triplicate on selected fluorogenic substrates according to the following protocol. To each well of a FALCON 96-well black flat bottom plate was added (1) 40 μL of 500 mM potassium phosphate buffer pH 7.0, (2) 113 μL of double deionized water, (3) 25 μL of 2 mM NADH (except for Pseudomonas testosteroni 3α-hydroxysteroid dehydrogenase, rat 3α-hydroxysteroid dehydrogenase, and Thermoanaerobium brockii NADP^+ dependent alcohol dehydrogenase, in which cases 2 mM of NADPH was used), (4) 2 μL of a 3-5 mM solution of substrate in DMSO, and (5) 20 μL of a 40-50 μg/mL solution of enzyme. Reaction volumes were mixed thoroughly after addition of cofactor, substrate, and enzyme and allowed to react 12 hours at 25° C. Scanning of the 96-well plate was performed by the MicroMax 384 connected to a Jobin Yvon Fluorolog through F-3000 fiber optic cables.
(§7) Initial Screening with Fluorogenic Substrates: Screening of the first fluorogenic substrates for enzymatic activity has been described above. In short, 200 μL enzymatic assay volumes containing 100 mM potassium phosphate buffer (pH 7), 250 μM NAD(P)H cofactor, and 30-50 μM of ketones (1-7) were incubated for 12 hours on a black FALCON 96-well plate. Formation of the alcohol reduction product was determined by reading the fluorescence arising from excitation at the corresponding alcohol at either 340 nm (27-30) or 440 nm (31-33).

The target of series [3] is T2, Thermoanaerobium brockii alcohol dehydrogenase (TBAD) (Thermoanaerobacter brockii, UniProt P14941).
T2 construct: purchased Sigma (St. Louis, Mo.) Lot Number 033K4093 (catalogue number not given)
T2 sequence (P14941 1-352): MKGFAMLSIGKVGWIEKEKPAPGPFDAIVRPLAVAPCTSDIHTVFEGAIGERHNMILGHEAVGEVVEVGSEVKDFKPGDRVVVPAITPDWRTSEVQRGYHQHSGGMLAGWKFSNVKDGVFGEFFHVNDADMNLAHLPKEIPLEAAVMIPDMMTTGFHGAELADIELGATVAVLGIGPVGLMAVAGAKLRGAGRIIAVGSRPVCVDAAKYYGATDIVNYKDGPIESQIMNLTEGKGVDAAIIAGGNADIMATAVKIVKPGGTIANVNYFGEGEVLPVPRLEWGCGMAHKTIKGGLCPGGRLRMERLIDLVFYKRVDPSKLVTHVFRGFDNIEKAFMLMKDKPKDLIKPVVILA
The series is described as above. To be noted: 12 hour incubation, 30-50 μM substrate, pH 7, 250 μM NAD(P)H. The series is classed as biochemical. The protocol: as §3, §4, §5, §6, §7

Substrate in series [4]: O=C(c1ccccc1)c1cc(=O)oc2c3c4c(cc12)CCCN4CCC3
Kind of series: Steady state kinetic parameters of fluorogenic substrates with purified AKR1C isozymes. The series is classed as biochemical, human. To be noted: other: isozyme 1C1, potassium phosphate buffer pH 6, NADPH, fluorimetric.
From the text: as §1, §2
(§8) Binding constant and catalytic rates (Km and kcat) of the second generation of fluorogenic substrates was determined as follows. To a STARNA semi-micro fluorometer cell (with 4 polished windows) was added 100 μL of 1 M potassium phosphate buffer (pH 6), 840 μL doubly deionized water, and 20 AL of 12.5 mM NADPH. After mixing the aqueous components thoroughly, 20 μL of acetonitrile was added as a cosolvent and mixed well. 20 μL of the second generation fluorogenic ketone (5a-5i) was then added and mixed to achieve assay concentrations of 5Km to Km/5. To initiate the reduction, 2 or 4 μL of diluted AKR1C (1:2 to 1:100, depending on the kinetics of a particular isozyme's reduction of a substrate) was then added to the cuvette. Fluorescence arising from the respective alcohol reduction product was then monitored over the course of 3 minutes (Excitation and emission band pass slits both at 4 nm, lamp 700 V, λexc 410 nm, λem 510). The rate of product formation, expressed in units of nanomoles per minute, were calculated according to previously published procedures (Wierzchowski, J.; Dafeldecker, W. P.; Holmquist, B.; Vallee, B. L. Anal. Biochem. 1989, 178, 57-62):
(§9) initial rate=[nst×(Ft−F0)/(Fst)]/t (1)
(§10) where Ft and F0 represent the fluorescence at times t and 0 minutes, nst is the nanomoles of product in a known concentration of product, and Fst is the fluorescence resulting from nst of product. Kinetic parameters were approximated by GraFit (Erithacus Software, Surrey, UK) nonlinear regression analysis program to fit the untransformed data to a hyperbolic function as originally described (Wierzchowski, J.; Dafeldecker, W. P.; Holmquist, B.; Vallee, B. L. Anal. Biochem. 1989, 178, 57-62). Reported enzymatic kinetic parameters are the average of three independent determinations from three different preparations of substrate and enzyme.

Substrate in series [5]: CC(=O)c1cc(=O)oc2c3c4c(cc12)CCCN4CCC3
Described as above. In kind it is biochemical, human. To be noted: other: isozyme 1C1, potassium phosphate buffer pH 6, NADPH, fluorimetric.
From the text: as §1, §2, §8, §9, §10

Substrate in series [6]: CC(=O)c1cc(=O)oc2c3c(ccc12)NCCC3
Described as above. In kind it is biochemical, human. The following applies: other: isozyme 1C1, potassium phosphate buffer pH 6, NADPH, fluorimetric.
From the text: as §1, §2, §8, §9, §10

Substrate in series [7]: O=C1CCc2c1c1cc3c4c(c1oc2=O)CCCN4CCC3
The series is described as above. The series is classed as biochemical, human. The following applies: other: isozyme 1C1, potassium phosphate buffer pH 6, NADPH, fluorimetric.
From the text: as §1, §2, §8, §9, §10

Substrate in series [8]: CC(=O)c1cc(=O)oc2cc(N(C)C)ccc12
The series is described as above. The series is classed as biochemical, human. To be noted: other: isozyme 1C1, potassium phosphate buffer pH 6, NADPH, fluorimetric.
From the text: as §1, §2, §8, §9, §10

T1 sequence (P00327 2-375 limits assumed): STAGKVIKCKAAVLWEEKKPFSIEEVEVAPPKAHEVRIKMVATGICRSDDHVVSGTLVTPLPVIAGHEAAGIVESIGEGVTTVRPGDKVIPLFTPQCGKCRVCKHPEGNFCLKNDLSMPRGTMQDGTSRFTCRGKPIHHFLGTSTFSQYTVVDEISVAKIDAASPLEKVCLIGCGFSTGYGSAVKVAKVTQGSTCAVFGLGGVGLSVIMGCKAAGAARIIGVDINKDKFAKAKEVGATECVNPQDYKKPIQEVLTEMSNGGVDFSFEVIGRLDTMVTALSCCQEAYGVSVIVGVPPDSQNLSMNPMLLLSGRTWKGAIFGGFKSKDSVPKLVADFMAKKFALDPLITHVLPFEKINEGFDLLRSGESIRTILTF

On to `CC(=O)c1c(Br)c(=O)oc2c3c4c(cc12)CCCN4CCC3` [5e, 8-Acetyl-9-bromo-2,3,5,6-tetrahydro-1H,4H-11-oxa-3a-aza-benzo[de]anthracen-10-one], for which, in series [1], the “acceptance as substrate by the four human isozymes” value was “not accepted as substrates by any of the tested 3a-HSD enzymes”.

In the case of `CC(=O)c1c(-c2ccccc2)c(=O)oc2c3c4c(cc12)CCCN4CCC3` [5f, 8-Acetyl-9-phenyl-2,3,5,6-tetrahydro-1H,4H-11-oxa-3a-aza-benzo[de]anthracen-10-one], the “acceptance as substrate by the four human isozymes” value in series [1] is given as “not accepted as substrates by any of the tested 3a-HSD enzymes”.

`COc1ccc2cc(C#CC(C)=O)c(=O)oc2c1` [compound 4, 7-Methoxy-3-(3-oxo-but-1-ynyl)-coumarin]: the “reduction of probe (fluorescence increase)” value in series [2] and in series [3] was “catalyzed reduction” throughout.

As to `CC(=O)C#Cc1cc2cc3c4c(c2oc1=O)CCCN4CCC3` [compound 7, 9-(3-Oxo-but-1-ynyl)-2,3,5,6-tetrahydro-1H,4H-11-oxa-3a-aza-benzo[de]anthracen-10-one], the “reduction of probe (fluorescence increase)” value in series [2] and in series [3] was “catalyzed reduction” in each case.

B1: AKR1C1 (Homo sapiens) (protein)
chain: MDSKYQCVKLNDGHFMPVLGFGTYAPAEVPKSKALEATKLAIEAGFRHIDSAHLYNNEEQVGLAIRSKIADGSVKREDIFYTSKLWCNSHRPELVRPALERSLKNLQLDYVDLYLIHFPVSVKPGEEVIPKDENGKILFDTVDLCATWEAVEKCKDAGLAKSIGVSNFNRRQLEMILNKPGLKYKPVCNQVECHPYFNQRKLLDFCKSKDIVLVAYSALGSHREEPWVDPNSPVLLEDPVLCALAKKHKRTPALIALRYQLQRGVVVLAKSYNEQRIRQNVQVFEFQLTSEEMKAIDGLNRNVRYLTLDIFAGPPNYPFSDEY
notes: gift of the Penning lab (University of Pennsylvania School of Medicine)
The term kcat denotes the number of substrate molecules converted per active site and unit of time at saturation. For the molecule B1, the Km in series [4] is 5.5 ± 0.7 3.0 ± 0.2 0.051 ± 0.005 6.2 ± 0.7 μM; in series [5], 24.4 ± 2.3 7.3 ± 0.4 1.1 ± 0.1 20.6 ± 1.9 μM; in series [6] it was 35.3 ± 2.9 4.8 ± 0.3 8.3 ± 0.9 40.2 ± 3.4 μM; in series [7], 4.0 ± 0.6 4.5 ± 0.6 0.13 μM; in series [8], 21.0 ± 1.3 7.2 ± 0.6 4.3 ± 0.3 14.8 ± 0.9 μM. The kcat in series [4] was 0.025 s⁻¹; in series [5], 0.0183 s⁻¹; in series [6], 0.11 s⁻¹; in series [7] it was 1.6 0.40 7.2 no activity; in series [8], 0.0333 s⁻¹. Moreover, the kcat/Km in series [4] was 0.27 7.8 106 0.10 min^−1 μM^−1; in series [5], 0.046 2.1 6.9 0.020 min^−1 μM^−1; in series [6], 0.19 6.0 0.84 0.036 min^−1 μM^−1; in series [7], 0.39 0.08 56 min^−1 μM^−1; in series [8] it was 0.10 3.0 2.1 0.14 min^−1 μM^−1.
